Paper PMC8967036, “Engineering of phenylalanine dehydrogenase from Thermoactinomyces intermedius for the production of a novel homoglutamate” (PLoS ONE, 2022)

Key:
purified protein [1] = substrate: O=C(O)CCCC(=O)C(=O)O; assay: purified protein; type: biochemical, Thermoactinomyces intermedius; settings: reductive amination, Tris-NH4Cl pH 8.0, 1 mM NADH, 37°C (general assay)
purified protein [2] = substrate: O=C(O)C(=O)Cc1ccccc1; assay: purified protein; type: biochemical, Thermoactinomyces intermedius; settings: reductive amination, Tris-NH4Cl pH 8.0, 1 mM NADH, 37°C (general assay)
[3] = mutant called only 'mutated TiPDH' at the number, A135R by b37-b38 (G114R and double mutant inactive)

Row | Protein | Km (purified protein [1]) [µM] | kcat (purified protein [1]) [min⁻¹] | Km (purified protein [2]; natural substrate) [µM] | kcat (purified protein [2]; natural substrate) [min⁻¹] | Km (purified protein [1]; [3]) [µM] | kcat (purified protein [1]; [3]) [min⁻¹] | Km (purified protein [2]) [µM] | kcat (purified protein [2]) [min⁻¹]
1 | TiPDH (phenylalanine dehydrogenase) (Thermoactinomyces intermedius) (protein, His-tagged, pET-Duet1, E. coli BL21(DE3), Ni-NTA purified) MRDVFEMMDRYGHEQVIFCRHPQTGLKAIIALHNTTAGPALGGCRMIPYASTDEALEDVLRLSKGMTYKCSLADVDFGGGKMVIIGDPKKDKSPELFRVIGRFVGGLNGRFYTGTDMGTNPEDFVHAARESKSFAGLPKSYGGKGDTSIPTALGVFHGMRATARFLWGTDQLKGRVVAIQGVGKVGERLLQLLVEVGAYCKIADIDSVRCEQLKEKYGDKVQLVDVNRIHKESCDIFSPCAKGGVVNDDTIDEFRCLAIVGSANNQLVEDRHGALLQKRSICYAPDYLVNAGGLIQVADELEGFHEERVLAKTEAIYDMVLDIFHRAKNENITTCEAADRIVMERLKKLTDIRRILLEDPRNSARR | 1.771 | 0.308 | 0.66 | 22.29 |  |  |  | 
2 | TiPDH (phenylalanine dehydrogenase) (Thermoactinomyces intermedius; A135R) (protein, His-tagged, pET-Duet1, E. coli BL21(DE3), Ni-NTA purified) MRDVFEMMDRYGHEQVIFCRHPQTGLKAIIALHNTTAGPALGGCRMIPYASTDEALEDVLRLSKGMTYKCSLADVDFGGGKMVIIGDPKKDKSPELFRVIGRFVGGLNGRFYTGTDMGTNPEDFVHAARESKSFRGLPKSYGGKGDTSIPTALGVFHGMRATARFLWGTDQLKGRVVAIQGVGKVGERLLQLLVEVGAYCKIADIDSVRCEQLKEKYGDKVQLVDVNRIHKESCDIFSPCAKGGVVNDDTIDEFRCLAIVGSANNQLVEDRHGALLQKRSICYAPDYLVNAGGLIQVADELEGFHEERVLAKTEAIYDMVLDIFHRAKNENITTCEAADRIVMERLKKLTDIRRILLEDPRNSARR |  |  |  |  | 7.518 | 1.37 | 1.2 | 25.84
